Results taken from article PMC10603135, “Phosphorylation-dependent pseudokinase domain dimerization drives full-length MLKL oligomerization” (Nature Communications, 2023).
Blank lines part the entries; values can stand above or below the molecule they belong to.

Experiments:
[1] = biological target: MLKL (mixed lineage kinase domain-like) pseudokinase domain, 190-471 (UniProt Q8NB16); assay: size-exclusion chromatography; conditions: reference: p-MLKL pseudokinase domain; sites T357,S358,T355,S360
[2] = biological target: full-length human MLKL (residues 2-471) T357E/S358E mutant (human) (UniProt Q8NB16); assay: SEC; full-length MLKL (WT or T357E/S358E) co-expressed with RIPK3 kinase domain in Sf21, purified by GST on MLKL, tag cleaved, HiLoad Superdex 200 in SEC buffer; fractions on reducing SDS-PAGE
[3] = biological target: phosphorylated human MLKL (p-MLKL) pseudokinase domain (190-471) (human) (UniProt Q8NB16); assay: SEC-SAXS; p-MLKL pseudokinase domain, 40 uL of 7.2 mg/mL, inline Superdex 200 Increase 5/150, 0.2 M NaCl, 20 mM HEPES pH 7.5, 5% v/v glycerol, 283 K
[4] = biological target: phosphorylated human MLKL (p-MLKL) pseudokinase domain (190-471) (human) (UniProt Q8NB16); assay: SEC; purified pseudokinase domain on Superdex 200 in 20 mM HEPES pH 7.5, 200 mM NaCl, 5% v/v glycerol
[5] = biological target: unphosphorylated human MLKL pseudokinase domain (residues 190-471) (human) (UniProt Q8NB16); assay: SEC-SAXS; MLKL pseudokinase domain:Mb27 complex pre-purified on Superdex 75, 50 uL of 5.6 mg/mL, inline Superdex 200 Increase 5/150, 0.2 M NaCl, 20 mM HEPES pH 7.5, 5% v/v glycerol, 283 K
[6] = biological target: the molecule itself; assay: SEC; full-length MLKL expressed alone in Sf21, purified, HiLoad Superdex 200 in SEC buffer
[7] = biological target: the molecule itself; assay: SEC; full-length MLKL (WT or T357E/S358E) co-expressed with RIPK3 kinase domain in Sf21, purified by GST on MLKL, tag cleaved, HiLoad Superdex 200 in SEC buffer; fractions on reducing SDS-PAGE

Molecule: MLKL (mixed lineage kinase domain-like) pseudokinase domain, 190-471 (from UniProt Q8NB16) λ phosphatase treated p-MLKL
binding against the reference [1]: lost

B1: recombinant full-length human MLKL (residues 2-471), wild-type (natural protein, UniProt Q8NB16 2-471, looked up)
chain: ENLKHIITLGQVIHKRCEEMKYCKKQCRRLGHRVLGLIKPLEMLQDQGKRSVPSEKLTTAMNRFKAALEEANGEIEKFSNRSNICRFLTASQDKILFKDVNRKLSDVWKELSLLLQVEQRMPVSPISQGASWAQEDQQDADEDRRAFQMLRRDNEKIEASLRRLEINMKEIKETLRQYLPPKCMQEIPQEQIKEIKKEQLSGSPWILLRENEVSTLYKGEYHRAPVAIKVFKKLQAGSIAIVRQTFNKEIKTMKKFESPNILRIFGICIDETVTPPQFSIVMEYCELGTLRELLDREKDLTLGKRMVLVLGAARGLYRLHHSEAPELHGKIRSSNFLVTQGYQVKLAGFELRKTQTSMSLGTTREKTDRVKSTAYLSPQELEDVFYQYDVKSEIYSFGIVLWEIATGDIPFQGCNSEKIRKLVAVKRQQEPLGEDCPSELREIIDECRAHDPSVRPSVDEILKKLSTFSK
notes: human MLKL, called full-length, residues 2-471; Expressed alone it elutes primarily as monomers with a smaller proportion of tetramers; with Mb27 all as tetramers; also called full-length MLKL; MLKL alone; source: Sf21 insect cells, expressed alone or co-expressed with Mb27, purified (glutathione resin, TEV cleavage, SEC); not shown: GST, N-terminal, cleaved
stoichiometry N [6]: 4

B2: full-length human p-MLKL tetramer (wild-type MLKL 2-471 co-expressed with RIPK3 kinase domain) (natural protein, UniProt Q8NB16 2-471, looked up)
chain: B1 chain
modifications: phosphorylated by co-expressed RIPK3 (sites not printed for the full-length protein); disulfide-linked via C184
notes: human MLKL, called full-length, residues 2-471; The purified tetramer carries sub-stoichiometric RIPK3 kinase domain; also called wild-type p-MLKL tetramer; MLKL (WT):RIPK3; source: Sf21 insect cells, co-expressed with RIPK3 kinase domain, purified (glutathione resin, TEV cleavage, SEC); not shown: GST, N-terminal, cleaved
stoichiometry N [7]: 4

Other lines, results leading:

stoichiometry N (RIPK3 per MLKL (1:1)) [2]: 1
Molecule: human RIPK3 kinase domain (residues 1-316; C3S, C110A), co-expressed with full-length MLKL (from UniProt Q9Y572 1-316) (domain or fragment)

stoichiometry N [3]: 2
stoichiometry N [4]: 2
Molecule: phosphorylated human MLKL (p-MLKL) pseudokinase domain (190-471) (from UniProt Q8NB16 190-471) (domain or fragment)

stoichiometry N [5]: 2
Molecule: unphosphorylated human MLKL pseudokinase domain (residues 190-471) (from UniProt Q8NB16 190-471) (domain or fragment)
